{
  "source": "patent EP1207198A1",
  "target": "human brain-derived G protein-coupled receptor protein ZAQ (human)",
  "experiment": "cell-based or functional assay",
  "data": [
    {"substance": "Human type ZAQ ligand mature peptide (type G, 86 amino acid residues)", "values": [
      {"measurement": "increase in the intracellular calcium ion concentration (FLIPR), EC50", "result": 0.096, "unit": "nM"}
    ]}
  ]
}
